From article PMC3792637 (Chembiochem, 2013) come the findings set out here.

For assay [1], the target named is K165-γ-thialysine S. aureus N-acetylneuraminic acid lyase (Staphylococcus aureus NCTC 8325) (UniProt Q2G160). Description: crystal structure.
The target in assay [2] is K165C variant of S. aureus N-acetylneuraminic acid lyase (Staphylococcus aureus NCTC 8325) (UniProt Q2G160). Description: crystal structure.
Assay [3] addresses T1, S. aureus NAL (N-acetylneuraminic acid lyase) (Staphylococcus aureus, UniProt Q2G160).
T1 sequence (Q2G160 1-293): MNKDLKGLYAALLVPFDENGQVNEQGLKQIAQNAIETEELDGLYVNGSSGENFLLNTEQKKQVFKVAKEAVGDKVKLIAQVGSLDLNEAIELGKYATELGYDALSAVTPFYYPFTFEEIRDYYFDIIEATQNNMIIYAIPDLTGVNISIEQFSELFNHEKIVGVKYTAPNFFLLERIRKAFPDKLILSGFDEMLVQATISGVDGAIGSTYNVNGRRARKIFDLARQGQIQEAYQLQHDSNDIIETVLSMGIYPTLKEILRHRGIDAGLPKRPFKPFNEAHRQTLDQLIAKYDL
As to the kind of experiment: X-ray crystal structure, soak. Format: binding. The conditions noted are these: covalent Schiff base with Lys165; 100 mM sodium pyruvate soak.

As usually defined, the stoichiometry N is a count of units in the complex or per binding partner. On to “K165-γ-thialysine S. aureus N-acetylneuraminic acid lyase (from UniProt Q2G160 1-293) (enzyme)”, for which the stoichiometry N in assay [1] worked out at 4. “K165C variant of S. aureus N-acetylneuraminic acid lyase (from UniProt Q2G160 2-293) (enzyme)” came in with a stoichiometry N in assay [2] of 4. For `CC(=O)C(=O)O` [pyruvate], the “X-ray crystal structure, soak” value in assay [3] is given as “the structure of the enzyme–pyruvate complex (PDB ID: 4AH7) was also determined”.
